{
  "source": "the RNAGym collection of RNA variant scans (doi:10.7554/elife.80360)",
  "parents": {"B1": {"name": "Twister Ribozyme (parent)", "chain": "AACACUGCCAAUGCCGGUCCCAAGCCCGGAUAAAAGUGGAGGGGGCGG"}},
  "data": [
    {"variants_of": "B1", "assay": "self-cleavage, relative activity (ratio to wild type); higher = more cleavage; co-transcriptional", "values": [
      {"variant": "A40C G43U", "self-cleavage": 0.136},
      {"variant": "G47U G48A", "self-cleavage": 0.819},
      {"variant": "G47U G48U", "self-cleavage": 1.57},
      {"variant": "G45A G48A", "self-cleavage": 0.785},
      {"variant": "G45A G48U", "self-cleavage": 0.917},
      {"variant": "G39U G44A", "self-cleavage": 0.15},
      {"variant": "G39U G44C", "self-cleavage": 0.155},
      {"variant": "G41A G48U", "self-cleavage": 0.511},
      {"variant": "U37G G43C", "self-cleavage": 0.0693},
      {"variant": "G41U G44C", "self-cleavage": 0.218},
      {"variant": "A40C G45A", "self-cleavage": 0.23},
      {"variant": "A40C G45C", "self-cleavage": 0.154},
      {"variant": "A40C G45U", "self-cleavage": 0.171},
      {"variant": "G44C G47U", "self-cleavage": 0.244},
      {"variant": "C46U", "self-cleavage": 0.958},
      {"variant": "C46G", "self-cleavage": 0.951},
      {"variant": "C46A", "self-cleavage": 0.927},
      {"variant": "G38C G45A", "self-cleavage": 0.736},
      {"variant": "G38C G39C", "self-cleavage": 0.127},
      {"variant": "G38C G39U", "self-cleavage": 0.164},
      {"variant": "G38U C46A", "self-cleavage": 0.794},
      {"variant": "U37G G38U", "self-cleavage": 0.127},
      {"variant": "U37G G38A", "self-cleavage": 0.774},
      {"variant": "G42A G43C", "self-cleavage": 0.113},
      {"variant": "G42U G45A", "self-cleavage": 0.294},
      {"variant": "G42U G45C", "self-cleavage": 0.203},
      {"variant": "G42U G45U", "self-cleavage": 0.191},
      {"variant": "G41C G42U", "self-cleavage": 0.167},
      {"variant": "G41C G42C", "self-cleavage": 0.129},
      {"variant": "G41C G42A", "self-cleavage": 0.125},
      {"variant": "G39C G44U", "self-cleavage": 0.169},
      {"variant": "G43A C46G", "self-cleavage": 0.367},
      {"variant": "G43A C46U", "self-cleavage": 0.315},
      {"variant": "U37G G44C", "self-cleavage": 0.669},
      {"variant": "U37G G44A", "self-cleavage": 0.703},
      {"variant": "G43C G45U", "self-cleavage": 0.275},
      {"variant": "G43C G45C", "self-cleavage": 0.267},
      {"variant": "G39U G42C", "self-cleavage": 0.133},
      {"variant": "G39A G44A", "self-cleavage": 0.339},
      {"variant": "A40C G41C", "self-cleavage": 0.15},
      {"variant": "A40G G41U", "self-cleavage": 0.166},
      {"variant": "G38A G44C", "self-cleavage": 0.932},
      {"variant": "C46U G47C", "self-cleavage": 1.6},
      {"variant": "C46U G47A", "self-cleavage": 0.874},
      {"variant": "G44U C46G", "self-cleavage": 0.728},
      {"variant": "G44U C46U", "self-cleavage": 1.02},
      {"variant": "G44U C46A", "self-cleavage": 0.476},
      {"variant": "G43A", "self-cleavage": 0.328},
      {"variant": "G43U", "self-cleavage": 0.537},
      {"variant": "G43C", "self-cleavage": 0.227},
      {"variant": "G43A G44C", "self-cleavage": 0.465},
      {"variant": "G43A G44A", "self-cleavage": 0.267},
      {"variant": "G43A G44U", "self-cleavage": 0.271},
      {"variant": "G39C G43U", "self-cleavage": 0.112},
      {"variant": "G39C G43C", "self-cleavage": 0.0898},
      {"variant": "G39U G43C", "self-cleavage": 0.132},
      {"variant": "G39U G43A", "self-cleavage": 0.138},
      {"variant": "U37C G41A", "self-cleavage": 0.134},
      {"variant": "U37C G41U", "self-cleavage": 0.126},
      {"variant": "U37C G41C", "self-cleavage": 0.087},
      {"variant": "G43A G48U", "self-cleavage": 0.291},
      {"variant": "G43A G48C", "self-cleavage": 0.354},
      {"variant": "G43A G48A", "self-cleavage": 0.244},
      {"variant": "G42C G48U", "self-cleavage": 0.561},
      {"variant": "U37G A40U", "self-cleavage": 0.128},
      {"variant": "U37G A40C", "self-cleavage": 0.163},
      {"variant": "G38A C46U", "self-cleavage": 0.877},
      {"variant": "G41A C46U", "self-cleavage": 0.612},
      {"variant": "G41A C46A", "self-cleavage": 0.356},
      {"variant": "G41A C46G", "self-cleavage": 0.429},
      {"variant": "G38A G45U", "self-cleavage": 0.737},
      {"variant": "G38A G45C", "self-cleavage": 0.65},
      {"variant": "G42A C46U", "self-cleavage": 0.349},
      {"variant": "G42A C46A", "self-cleavage": 0.251},
      {"variant": "A40G G42A", "self-cleavage": 0.113},
      {"variant": "A40G G42C", "self-cleavage": 0.215},
      {"variant": "G43U G47A", "self-cleavage": 0.201},
      {"variant": "G43U G47C", "self-cleavage": 0.177},
      {"variant": "G43U G47U", "self-cleavage": 0.137},
      {"variant": "C46A G48A", "self-cleavage": 0.837},
      {"variant": "C46A G48U", "self-cleavage": 0.889},
      {"variant": "G44C G48U", "self-cleavage": 0.225}
    ]}
  ]
}
